Experimental findings from the DeepSol protein solubility set are described below.

A short description of the data set: soluble on expression in E. coli; label from the status in PepcDB or PDB records.
Consider “MLTACNGSRKGDANLSDNPLLQSSALFMEAPEFDKIKTEHFLPAFEAGMEQQLAEIDSIVNNSEAPTFENTLVAMERSGQTLKRVSNVFFGLTGANTNDELQKIEEKVSPLLAAHSDAIYLNDKLFQRVKAVYESDQSAIEPEGQKLIQEYYDAFVRAGANLSAEDKAKLMELNKEEASLTTEFGNKLIAATNAAAVIVGSKDSLDGLSETEIAKAASDAKAAGHEGKYLLNITNTTQQDYLSVLNDRTIRQRVLEASIHRTDKGDANDTQSIVLRLARLRAQKARLLGFPNYAAWKLQNQMANNPETVLAFVKSIATPYAPQAQKDAAELQAYARSKGFEGDLTAADWNYYADKLRKEKFGLDENEVKQYFVTDSVLKNGVFYAANKLYGLTFKERTDLPVYAEDVRVFDVIDQDGKQLALFYTDLYRRPTKSGGAWMSNWVDQSYLLNQKPVIYNVCNYAKGVDGQPSLINYDEVTTLFHEFGHALHGMFAAQQYPLLSGTNVARDFVEMPSQLNEHWAMDPEVFANYAKHWKTQEPMPAELVKKIQDASDFNQAYSMGENLAAVSLDQAWHTLTVEEAEAITDVAKFEEEALRKVGLYNPQIPPRYRSSYFRHIWSNGYASGYYAYLWTEVLDHNVYQWMVQNGGMTPQNGQRLRDMILSRGNTQDFNVIFTAFTGLQKPDIRDLLRARGLM”, for which the “soluble on expression in E. coli” value is listed as “soluble”.
As for “MLTDLEKNAIRDHYQNIGKNLPGFRPRASQREMIAAVANAFSRTLAREEGGEPPKREGESIAVIEGPTGVGKSLAYLLAGGIMAQTRGKRLIVSSATVALQEQLVDRDLPFLVEKSGLELTFALAKGRGRYLCPYKLYRLTQSNAQQNLLGFEAPAVLWDSKPKPEELKLLRDIADEFSARRFNGDRDTWPEKIDDAIWLKVTNDRHGCLKTACPNRPECPFYLARDVLETVDVVVANHDLLLADISMGGGVILPAPENSFYCIDEAHHLPKKALSRFAAEHSWNIAVWTLEKLPQLTGKIAALTDKAELANLADEAAASLLDSLHEWQFHLAEEPSLSLGVSENDRRTNSEPTWLWEDGKIPEGLETTVSNTAIAARSLLKHVIGLNDALSAARREKEQDGALLDRLTSEFGLFIARIEQISAVWDLLSTVPLEGEEPLAKWITRRADDKNDYIFNASPISSASHLANSLWRRAAGAVLTSATLQSLGNFNLMLRQTGLQWLPETTTLALKSPFDFEKQGELYIPPIYASPKDPEAHTAAVIEWLPKLISPTEAIGTLVLFSSRKQMQDVALRLPGDYLPLLLVQGELPKAVLLQKHHRAIEEGKASIIFGLDSFAEGLDLPGTACVQVIIAKLPFAMPDNPIEKTQNRWIEQRGGNPFIEITVPEAGIKLIQAVGRLIRTEQDYGRVTILDNRIKTQRYGQQLLAGLPPFKRIG”, the entry is “not soluble”; as for “MLTLITFPKAFGLYSASPFCVKAAYLLTLAGEPWQRQDQTDPRRMPHGKLPVLRTPERLVPDSDGIRAWLESRGAEFDRGLTDAQRASARALIHMAEDHFYPYLVLDRWGNDAVWAIIRDTFFGEIPRLLRKPVTNRIRAQVLRGLDFQGMARFSEAERRDRVERSFEAVTALLWQKPFLFGDAPTGADLSVAPMLAAMRATPVATPLQRRVAGDRVLSDYIDRMDATLPLT”, “not soluble”.
Under “MLTRDFLQKADCRTSFGCIEETLLLTPQQRADSLDRMLALRPNSCPVWVFGYGSLMWNPVFDAEETCLATLTGWQRAFCLRLTIGRGTVTQPGRMLALQPGGQTTGLAFRLPKTSLREDLELLWKREMLTGCYRPLWCELHRKNGAPLTALVFVSEPEHPLNENDTCIQSVAPLIARASGPLGTNAQYLFALEQELKNHGTEDESVSELAQRVRTLQQSCPAPAGGGQLEHHHHHH” stands “not soluble”; under “MLTRVPVLILAVIVMLALCQEPEKPEKRPALLSRYGRAVLPRYGKRSGNLMESSQNSLTEESSDVVCQLIDGKYICLPVDAGFLGEVNGSIKQNSKTKCPAFFKNVSFSLFFRAFYLTVPACTSKKNVLLTSTTSTINHQKLEPATTLSPIRQRRRCLFQIDFAYLTVCPSKCQEGTDTGKVADYLLSLGCSDMDVIEREMKRVCCPE”, “not soluble”; under “MLTYGAPFNFPRWIDEHAHLLKPPVGNRQVWQDSDFIVTVVGGPNHRTDYHDDPLEEFFYQLRGNAYLNLWVDGRRERADLKEGDIFLLPPHVRHSPQRPEAGSACLVIERQRPAGMLDGFEWYCDACGHLVHRVEVQLKSIVTDLPPLFESFYASEDKRRCPHCGQVHPGRAA”, “soluble”.
As for “MLVDKTEFEAWMERIMGELYRISRKLDKAETREKHLNYLNGERLYDNQEVCLLLRISKRTLQRYRNNGVLKFYSIYHKTYYKESDLHEFIRNNFDENEIKRQAREDKLSESYPLPKE”, the entry is “not soluble”.
For the sequence “MLVNKVEICGVNTSKLPVLTNEQKKELFERMHKGDTSAREEFIKGNLRLVLSVIQRFNNRGEYVDDLFQVGCIGLIKAIDNFDVTQNVKFSTYAVPMIIGEIRRYLRDNNAIRVSRSLRDIAYKALQAKEKLTNQNSKEPTIEEIAKELGLPKEEVVFALDAIQDPISLFESVYHDGGDAIYVMDQVKDEKNNDENWLEGIALSEAMRKLNDREKLILNLRFFDGRTQMEVAEEIGISQAQVSRLEKTALMHMRKYI”, the “soluble on expression in E. coli” value is “not soluble”.
Under “MLVVSIAGSPSVRSRSGVLLERARDWLSRRGVEVASHQVLDFPAEDLLRARLDSPPVLALAEQIGRADGLLVATPVYKASFSGALKVLLDLLPERALEHKVVLPFATGGSSAHMLAVDYALKPVLAALKAQEVLHGVFAVDKQIAYATESDPARLEPVLEQRLENALETFHLALSRRPQPIDPQLLNERLVNARWSI” stands “soluble”; under “MLYKGCLMKSDVQLNLRAKESQRALIDAAAEILHKSRTDFILETACQAAEKVILDRRVFNFNDEQYEEFINLLDAPVADDPVIEKLLARKPQWDV”, “not soluble”; under “MLYPSKPNNEALRIQTLRELNVLDTSPEERFDRLTRLAKRLFNVPIALVSLVDADRQWFKSCVGLDVSETSRDISFCGHAILGDQILTVPDAGLDERFHDNPLVVGAPGIRFYAGCPLTVTNGSKLGTLCLIDIKPRDLDDEDRALLRDLARMAEQELAAVQMASMDELTLLSNRRGFEALARHALGVCKRLEKPATLLFFDLNDFKQINDTYGHAEGDGALKTFADVLRIAFRESDVIGRLGGDEFVALLTAADHVETSAIMARLREILDERNATLKRGYDIRFSVGQIEYDAERHPDIEALLADADKAMYLHKQASKRAR”, “not soluble”.
Regarding “MMAKDFYSAIEDRRSIYAISKEQVVSDEKIQEVIYHAVKHTPSAFNSQSARVVVLLGEQHDKLWDITKETLRKIVPENNFAPTEEKMNAFKSGYGTVLYFEDSEVVESLQANFALYKDNFPTWSQQSSGMLQFAIWTALEIEGFGATLQHYNPLIDEEVRKEWDVPANWKLIAQMPFGKPVVQAGEKEFQPLENRVKIYKLEHHHHHH”, the “soluble on expression in E. coli” value was “soluble”.
Turning to “MMDHAHDSCSPTLRRDLEVTGQLQPEKAVDLAAPHEGKVANITKVTSSNMEHTITQASKAKEVVVLIGHSLLPTFQDLEKDILHFQAGNKGRFSVAIVDPDRSADVVARFRPKQIPVAYVVKDGASIAEFNSLNKEPVAQWLDHFVSRETIPNEKEGDVDKQIDPRLWRAAELVNAGDFRAALALYEQLPQDATVKRAHAAVSVLARMSVADRGEDPIEKSRRDPDDVNKALAAADMYVLMNQPDTALAHLAALLPKPEAARRIVELLNLFDPLDLVALEIRAQVGNAMS”, the “soluble on expression in E. coli” value was “not soluble”.
For “MMDSCIRIAGIIGESIVDGPGIRLVVFAQGCPHHCPGCHNPETHAYEGGKSVAIAEILQRLAMNPLLDGITLSGGEPFAQAAGFALLAQSARQRGFHVMTYSGYTYEELTASSEQNPAWALLLEQTDLLVDGPFQLAERNLLLPFRGSENQRVIDVQESLRQGKVVLASVLEHHHHHH”, the “soluble on expression in E. coli” value is recorded as “not soluble”.
Turning to “MMEMRVGIVGGGLAGLTAAIALAEKGFDVSIIGPRSTDSNSYLAQAGIALPLLEGDSIRIHVLDTIKAGKYINDEEIVWNVISKSSEAHDFLTSHGVTFTGNELEGGHSYPRIFTIKSETGKHIIPILEKHARELDVNFIRGFVEEIGINNGKLAGVFLQGELLKFDAVVIAAGGFSGLYRFTAGVKNNIGLLIGDVALKGVPLRDMEFVQFHPTGFIGKRTYLITEAVRGAGAKLVTGDGERFVNELETRDIVARAIYMKMLEGKGVFLDARGIENFKDRFPYIYSVLRGEGINPEKDLIPITPVAHYTIGGISVDAFYRTRIKGLYAIGESACNGFHGANRLASNSLLECVVSGLEVARTISREKPKREVNDAPYSFNELGDVDSIREVLWNHAGIVRDEWSLREGLRKLKEIEVDERLKLVAKAVIISALKREESRGAHYRKDYPFMRKEFEHSSFFYPNV”, the “soluble on expression in E. coli” value is “soluble”.
As for “MMEPITKETRFNELPQQIKQKLINIYRSSHQQYLSMEMLKPTKFNLLYSQTQDLQTRNLQKNFKLLVESAEKLKRMWNLNKDEVDFRYLHENLKKSLEEFKEEVMLYKKNEGNTEFLDEIAMTYAMLRNKLESLTKERRA”, the entry is “not soluble”; as for “MMETQNVKDTVRQIFTEYLTANGHRKTPERYAILETIYSIDGHFDIDMLYSRMMDQENFRVSRATLYNTIILLINARLIIKHQFGTSSQYEKSYNRETHHHQICTQCGKVTEFQNEELQHAIENTKLSRFQLSHYSLYIYGLCSKCDRANKRKKVSNNNKKEK”, “not soluble”.
For “MMIEPKEKASIGIIGGSGLYDPQILTNVKEIKVYTPYGEPSDNIILGELEGRKVAFLPRHGRGHRIPPHKINYRANIWALKSLGVKWVIAVSAVGSLRLDYKPGDFVVPNQFIDMTKGRTYTFFDGPTVAHVSMADPFCEHLRSIILDSAKDLGITTHDKGTYICIEGPRFSTRAESIVWKEVFKADIIGMTLVPEVNLACEAEMCYSVIGMVTDYDVFADIPVTAEEVTKVMAENTAKVKKLLYEVIRRLPEKPDERKCSCCQALKTALVLEHHHHHHHH”, the “soluble on expression in E. coli” value is listed as “soluble”.
“MMIMERHYTLKEASKILGVSIKTLQRWDKAGKIKCIRTLGGKRRVPESEIKRILGIKDKEQRKIIGYARVSFNAQKDDLERQIQLIKSYAEENGWDIQILKDIGSGLNEKRKNYKKLLKMVMNRKVEKVIIAYPDRLTRFGFETLKEFFKSYGTEIVIINKKHKTPQEELVEDLITIVSHFAGKLYGMHSHKYKKLTKTVKEIVREEDAKEKE”: the “soluble on expression in E. coli” value is “not soluble”.
Under “MMKDKHGAMNAERRGMGEQRLAERMAELERRLKEVEAENIVLKELAYQSAKRYEQLKQLAKENDELRRQLLQSPWSEKTDKMDEDERPDSWFFRTLRQENAIMPHPERNEK” stands “not soluble”.
As for “MMKGSKSYTEYSSSFSTDEFGYDQNRSNSYNFNGPCINTDPEMKRKKRVASYNLFATEEKLKSTLKNSFKWIKNKFSGDDNSIRYNV”, the entry is “not soluble”; as for “MMKKALLIDDECWLRVQARDASADGRFVFAVRTTGVFCRPSCRSKRALRKNVRFFANAQQALDAGFRPCKRCQPDNARAQQRRLDKIACACRLLEQETPVTLAFLAQAVAMSPFHLHRLFKASTGMTPKGWQQAWRARRLREALAKGEPITAAIYRAGFPDSSSYYRHADQTLGMTAKQFRKGGDNVSVRYALTDWVYGRCLVAESERGICAILPGDSDDALLAELHTLFPSARHEPADALFQQRVRQVVAAINTRDVLLSLPLDIQGTAFQQQVWQALCAIPCGETVSYQQLAATIGKPTAVRAVASACGANKLAMVIPCHRVVRRDGALSGYRWGVRRKAQLLKREAQKEE”, “not soluble”.
